For this test, the target named is Recombinant green fluorescent protein (CopGFP, amplified from the pTurboGFP plasmid). In words: SEC. For orientation: Size exclusion chromatography separates by hydrodynamic size, large species first.

By stoichiometry N is commonly meant a count of units in the complex or per binding partner.

For “Recombinant green fluorescent protein (CopGFP, amplified from the pTurboGFP plasmid) (natural protein)”, the stoichiometry N came to 2.
